The nanobody polyreactivity screen of Harvey et al. (2022)

Experiment: yeast display, Sf9 membrane polyspecificity reagent, FACS + sequencing; frameworks hold sequencing errors
Procedure, shortened: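 A nanobody's polyreactivity label depends on the gate it was sorted from. Yeast display cells were stained with 10% biotinylated, detergent-solubilized Sf9 membrane reagent for 1 hour at 4 °C, enriched on streptavidin microbeads and sorted by FACS. The low and high (top ~1%) gates were set on anti-HA fluorescence for expression and streptavidin fluorescence for reagent binding.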

Sequence	polyreactivity (PSR sort gate)
QVQLVESGGGLVQAGGSLRLSCAASGSTFGGYAKGWYRQAPGKERELVAAISGSGVRTYYADSVKGRFTISRDNAKNTVYLQMNSLKPEDTAVYYCAKRVRYPGDRYYYWGQGTQVTVSS	high polyreactivity
QVQLVESGGGLVQAGGSLRLSCAATGNTFTYNTMGWYRQAPGKERELVARITFSAGRTYYADSVKGRFTISRDNAKNTVYLQMNSLKPEDTAVYYCAAYSFGLRSYYLYDYWGQGTEVTVSS	high polyreactivity
QVHLVESGGGLVQAGCSLRLSCAASGFTYYYYAIGWYRQAPGTEMELVAAISSGGSTNYADSVKGRFTISRDNANNTVYLQMNSLKPEDTAVYYCAATQPYWWAYRYDYWGQGTKVTVSS	low polyreactivity
QVQLVESGGGLVQAGGSLRLSCAASGIIFSSYAMGWYRQAPGKERELVAAITSGGSTNYADSVKGRFTISRDNAKNTVYLQMNSLKPEDTAVYYCATVHAKPYYYWGQGTQVTVSS	low polyreactivity
QVQLVESGGGLVQAGGSLRLSCAASGSIFGKYAMGWYRQAPGKERELVAAISGRGGGTYYADSVKGRFTISRDNAKNTVYLQMNSLKPEDTAVYYCNAYYSRLRYDYWGQGTQVTVSS	high polyreactivity
QGQLVESGGGLVQAGGSLRLSCAASGNIFNRYGMGWSRQAPGKERELVAAISSSGTSPYYADSVKGRFTISRDYAKNTVYLQMNSLKPEDTAVYYCAASYPTRAWEYDYWGQGTQVTVSS	high polyreactivity
QVQLLESGGGLVQAGGSLRLSCASSGYINSYYTMGWYRHATGKERVLVASIRWAGGRTYYADSVKGRFTFSRDNAKITVYLQMNSLKPEDTAVYYCNVKSSRFLDVGRMEYWGQGTQVTVSS	high polyreactivity
QVQLVESGGGLVQAGGSLRLSCAPSGRTLRGYAMGWYRQAPGKEREFVAAISSRGGSTYYADSVKGRFTISRDNAKNTVYLQMHSLKPEDTAVYYCAALRPLFATSHARDYWGQGTQVTVSS	high polyreactivity
QVQLVESGGGLVQAGGSLRLSCAASGRISVFYAMGWYRQAPGKERELVAAITRSGTTKYADSVKGRFTISRDNAKNTVYLQMNSLKPEDTAVYYCAADSSRFFYGVYNYRQYGYWGQGSQVTVSS	high polyreactivity
QDLLVESGGGLVQAGGRLRLSCAASGSTFRYYAMGWYRQAPGKERELVAAITNSCGSTNYADSVKGRFTISRDNAKNTVYLQMNSLKPEDTAVYYCNANTWRYFTMGYWGHGTQVTVSS	high polyreactivity
QVQLVESGGGLVQAGGSLRLSCAASGSSFRRYAMGWSRQAPGKERELVASITASGGSTYYADSVKGRFTISRDNAKNTVYLQMNSLKAEDTAVYYCNKDTIKSYYRRYDSWGQGTQVTVSS	low polyreactivity
QVQLQESGCGLVQVGGSLRLSCAASGTTFIYGFLGWNRQAPGKERELVASINLGGFTNYADSVKGRFTISRDNAKNTVYLQMISLNPEDSAVFYCAAYVVTGQNYGYWGKGTQVTVSS	low polyreactivity
QVQLVESGGGLVQAGGSLRLSCAASGYTFSYNTMGWYRQAPGKERELVAAIRLSGGSTYYADSVKGRFTSSRDNAKNTVYLQMNSLKPEDTAVYYCAARQIITKFYTSNGVSYYYWGQGTQETVSS	high polyreactivity
QVQLVESGGGLVQAGGSLRLSCAATGSTFATNAMGWYKQAPGKEREFVAAISRRGGRTYYADSVKGRFTISRDNAKNTVYLKMNSVKPEDTAVYYCNTLRVGWGQGTQVTVSS	high polyreactivity
QVQLVESGGGLVQAGGSLRLSCAASGGIFGSYAMAWYRQAPGKERELVAAISWTGGSTYYADSVKGRFTISRDNAKNTVYLQMNSLKPEDTAVYYCNADTYRRAQLRFNSWGQGTQVTVSS	low polyreactivity
QVQLVESGGGLVQAGGSLRLSCAASGRIFRHYGMGWYRQAPGKERELVARITRSGGSTYYADSVKGRFTISRDNAKNTVYLQMTSLKPEDTAVYYCAAFTYGESWYDYWGQGTQVTVSS	low polyreactivity
QVQLVESGGGLVQAGGSLRLSCAASGSIFVHNAMGWSRQAPGKERELVAAITRGGSTYYADSVKGRFTISRDNAKNTVYLQMNSLKPEDTAVYYCAALAAWRWDLYDYWGQGTQVTVSS	low polyreactivity
QVQLVESGGGLLQAGGSLRLSCAASGSIFTYYAMGWYRQAPGKEREFVAAINYGGGSTYYADSVKGRFTISRDNAKNTVYLQMNSQKPEDTAVYYCNARTFGPNGKHRYGYWGQGTQVSVSS	high polyreactivity
QVQLVESGGGLVQAGGSLRLSCAASGRTFRRYAMGWYRQAPGKERELVAAISWGAGSTRYADSVKGRFTISRDNAKNTVYLQMNSLKPEDTAVYYCAAENTRAYGMYYWGQGTQVTVSS	high polyreactivity
QVQLVESGGGLVQAGGSLRLSCAASGSTFVTYAMGWYRQAPGKERELVAAIDSGGNTNYADSVKGRFTISRDNAKNTVYLQMNSLKPEDTAVYYCAVRPYELNRLDDQPGGDDYWGQGTQVTVSS	low polyreactivity
QVQLVESGGGLVQAGGSLRLSCAAYSYVMGGYRQAPGKERELVAAISQSGGSTYYADSVKGRFTISRDNAKNTVYLQMNTLKPEDTAVYYCAASYQVRYDYWGQGTQVTVSS	high polyreactivity
